Assay: SEC; TSK gel G3000SWXL, 100 mmol/L sodium phosphate with 100 mmol/L Na2SO4 (pH 6.8), isocratic, 0.4 ml/min, 25°C, UV at 280 nm; area percentages of monomer, oligomeric and truncated forms of the antibody solution (5 g/L in 10 mmol/L potassium phosphate pH 7.0)

NMIJ RM 6208a, AIST-MAB (humanized IgG1κ monoclonal antibody reference material)
area percentage of the monomer peak: (93.7 ± 0.2) %
